B1: Speckle-type POZ protein (Homo sapiens), O43791 (parent)
chain: MSRVPSPPPPAEMSSGPVAESWCYTQIKVVKFSYMWTINNFSFCREEMGEVIKSSTFSSGANDKLKWCLRVNPKGLDEESKDYLSLYLLLVSCPKSEVRAKFKFSILNAKGEETKAMESQRAYRFVQGKDWGFKKFIRRDFLLDEANGLLPDDKLTLFCEVSVVQDSVNISGQNTMNMVKVPECRLADELGGLWENSRFTDCCLCVAGQEFQAHKAILAARSPVFSAMFEHEMEESKKNRVEINDVEPEVFKEMMCFIYTGKAPNLDKMADDLLAAADKYALERLKVMCEDALCSNLSVENAAEILILADLHSADQLKTQAVDFINYHASDVLETSGWKSMVVSHPHLVAEAYRSLASAQCPFLGPPRKRLKQS
partner: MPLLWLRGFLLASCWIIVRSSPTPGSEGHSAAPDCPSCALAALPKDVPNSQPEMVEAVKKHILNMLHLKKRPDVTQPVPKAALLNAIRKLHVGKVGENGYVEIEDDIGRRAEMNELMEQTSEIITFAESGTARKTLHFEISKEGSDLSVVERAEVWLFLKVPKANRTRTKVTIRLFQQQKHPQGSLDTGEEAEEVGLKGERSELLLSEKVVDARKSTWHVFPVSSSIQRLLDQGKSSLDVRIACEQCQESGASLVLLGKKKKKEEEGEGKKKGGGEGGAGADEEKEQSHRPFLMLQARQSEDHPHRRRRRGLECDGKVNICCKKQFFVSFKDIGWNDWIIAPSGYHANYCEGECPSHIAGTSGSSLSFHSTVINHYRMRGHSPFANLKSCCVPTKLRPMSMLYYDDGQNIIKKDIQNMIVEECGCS
B2: Speckle-type POZ protein (Homo sapiens), O43791 (parent)
chain: B1 chain
partner: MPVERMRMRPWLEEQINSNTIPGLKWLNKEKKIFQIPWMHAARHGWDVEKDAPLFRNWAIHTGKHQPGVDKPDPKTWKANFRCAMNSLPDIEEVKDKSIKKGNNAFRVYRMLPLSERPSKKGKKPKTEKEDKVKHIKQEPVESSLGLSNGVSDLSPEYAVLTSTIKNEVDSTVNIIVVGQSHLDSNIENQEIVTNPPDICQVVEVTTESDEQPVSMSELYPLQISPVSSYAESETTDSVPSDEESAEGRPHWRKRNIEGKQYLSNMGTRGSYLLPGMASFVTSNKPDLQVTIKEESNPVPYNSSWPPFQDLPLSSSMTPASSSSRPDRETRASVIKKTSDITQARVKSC
B3: Speckle-type POZ protein (Homo sapiens), O43791 (parent)
chain: B1 chain
partner: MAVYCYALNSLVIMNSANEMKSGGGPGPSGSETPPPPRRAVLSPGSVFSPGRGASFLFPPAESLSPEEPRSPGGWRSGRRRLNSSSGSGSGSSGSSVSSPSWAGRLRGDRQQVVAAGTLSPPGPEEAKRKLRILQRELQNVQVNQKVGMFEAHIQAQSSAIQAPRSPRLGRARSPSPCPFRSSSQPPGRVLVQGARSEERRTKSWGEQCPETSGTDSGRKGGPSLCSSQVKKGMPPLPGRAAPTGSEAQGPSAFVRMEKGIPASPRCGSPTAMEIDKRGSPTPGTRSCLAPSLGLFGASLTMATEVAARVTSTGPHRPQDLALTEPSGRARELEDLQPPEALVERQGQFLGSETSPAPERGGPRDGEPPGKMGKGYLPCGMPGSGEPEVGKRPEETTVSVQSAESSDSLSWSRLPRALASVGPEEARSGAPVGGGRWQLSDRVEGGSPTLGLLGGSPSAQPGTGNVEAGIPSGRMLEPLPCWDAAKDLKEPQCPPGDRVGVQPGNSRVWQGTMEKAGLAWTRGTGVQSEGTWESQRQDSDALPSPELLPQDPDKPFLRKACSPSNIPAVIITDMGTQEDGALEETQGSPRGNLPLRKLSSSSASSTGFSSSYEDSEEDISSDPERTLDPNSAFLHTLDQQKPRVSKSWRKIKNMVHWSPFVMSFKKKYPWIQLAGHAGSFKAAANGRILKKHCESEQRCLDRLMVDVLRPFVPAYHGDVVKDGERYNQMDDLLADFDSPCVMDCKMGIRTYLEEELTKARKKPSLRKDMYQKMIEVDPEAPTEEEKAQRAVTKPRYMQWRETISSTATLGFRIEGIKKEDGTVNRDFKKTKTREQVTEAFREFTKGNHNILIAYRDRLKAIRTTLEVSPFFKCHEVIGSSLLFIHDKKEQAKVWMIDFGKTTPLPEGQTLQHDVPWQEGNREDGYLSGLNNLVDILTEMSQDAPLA
B4: Speckle-type POZ protein (Homo sapiens), O43791 (parent)
chain: B1 chain
partner: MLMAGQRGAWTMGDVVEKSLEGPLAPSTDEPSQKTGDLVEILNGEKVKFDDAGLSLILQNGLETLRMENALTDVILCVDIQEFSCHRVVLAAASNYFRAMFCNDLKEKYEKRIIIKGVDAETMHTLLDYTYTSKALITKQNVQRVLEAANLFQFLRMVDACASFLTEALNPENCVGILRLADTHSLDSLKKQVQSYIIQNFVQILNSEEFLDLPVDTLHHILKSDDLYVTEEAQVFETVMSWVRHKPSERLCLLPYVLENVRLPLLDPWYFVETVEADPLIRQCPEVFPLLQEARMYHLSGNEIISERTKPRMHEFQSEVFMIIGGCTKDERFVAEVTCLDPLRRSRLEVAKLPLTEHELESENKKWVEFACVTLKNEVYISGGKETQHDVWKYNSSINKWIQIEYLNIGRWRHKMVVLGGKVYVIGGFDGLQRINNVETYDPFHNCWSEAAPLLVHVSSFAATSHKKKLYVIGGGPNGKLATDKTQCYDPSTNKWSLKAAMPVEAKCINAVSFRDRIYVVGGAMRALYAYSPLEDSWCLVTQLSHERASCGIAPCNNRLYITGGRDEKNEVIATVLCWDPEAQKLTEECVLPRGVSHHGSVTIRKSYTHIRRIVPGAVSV
B5: Speckle-type POZ protein (Homo sapiens), O43791 (parent)
chain: B1 chain
partner: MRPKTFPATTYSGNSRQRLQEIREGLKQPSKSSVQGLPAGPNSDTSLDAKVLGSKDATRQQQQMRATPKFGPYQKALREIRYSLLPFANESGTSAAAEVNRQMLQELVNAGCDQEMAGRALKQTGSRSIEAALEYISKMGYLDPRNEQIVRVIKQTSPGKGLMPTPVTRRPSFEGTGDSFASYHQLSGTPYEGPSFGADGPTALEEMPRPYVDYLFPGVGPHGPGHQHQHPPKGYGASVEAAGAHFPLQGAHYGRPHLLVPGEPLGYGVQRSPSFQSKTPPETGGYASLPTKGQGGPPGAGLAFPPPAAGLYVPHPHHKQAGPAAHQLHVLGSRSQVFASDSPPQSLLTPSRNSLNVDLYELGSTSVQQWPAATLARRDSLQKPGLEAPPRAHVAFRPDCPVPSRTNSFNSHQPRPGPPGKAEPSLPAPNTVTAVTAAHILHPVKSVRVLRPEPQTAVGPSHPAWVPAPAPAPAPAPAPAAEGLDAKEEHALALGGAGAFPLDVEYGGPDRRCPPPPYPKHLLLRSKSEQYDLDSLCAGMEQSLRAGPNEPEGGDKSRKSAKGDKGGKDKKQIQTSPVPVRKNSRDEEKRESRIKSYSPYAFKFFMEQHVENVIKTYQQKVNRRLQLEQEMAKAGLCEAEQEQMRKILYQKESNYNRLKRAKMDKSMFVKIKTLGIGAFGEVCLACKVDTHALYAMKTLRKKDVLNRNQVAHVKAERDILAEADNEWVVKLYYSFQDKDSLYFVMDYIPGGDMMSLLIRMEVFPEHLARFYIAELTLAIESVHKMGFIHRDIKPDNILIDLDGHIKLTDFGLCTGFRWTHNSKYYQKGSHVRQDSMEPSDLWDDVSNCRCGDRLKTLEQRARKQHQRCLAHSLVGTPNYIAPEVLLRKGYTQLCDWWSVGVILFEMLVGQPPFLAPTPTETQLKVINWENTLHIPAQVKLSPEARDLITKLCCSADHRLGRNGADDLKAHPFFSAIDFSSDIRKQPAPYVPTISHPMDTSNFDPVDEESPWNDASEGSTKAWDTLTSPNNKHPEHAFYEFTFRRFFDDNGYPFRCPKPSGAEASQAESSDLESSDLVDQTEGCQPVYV
B6: Speckle-type POZ protein (Homo sapiens), O43791 (parent)
chain: B1 chain
partner: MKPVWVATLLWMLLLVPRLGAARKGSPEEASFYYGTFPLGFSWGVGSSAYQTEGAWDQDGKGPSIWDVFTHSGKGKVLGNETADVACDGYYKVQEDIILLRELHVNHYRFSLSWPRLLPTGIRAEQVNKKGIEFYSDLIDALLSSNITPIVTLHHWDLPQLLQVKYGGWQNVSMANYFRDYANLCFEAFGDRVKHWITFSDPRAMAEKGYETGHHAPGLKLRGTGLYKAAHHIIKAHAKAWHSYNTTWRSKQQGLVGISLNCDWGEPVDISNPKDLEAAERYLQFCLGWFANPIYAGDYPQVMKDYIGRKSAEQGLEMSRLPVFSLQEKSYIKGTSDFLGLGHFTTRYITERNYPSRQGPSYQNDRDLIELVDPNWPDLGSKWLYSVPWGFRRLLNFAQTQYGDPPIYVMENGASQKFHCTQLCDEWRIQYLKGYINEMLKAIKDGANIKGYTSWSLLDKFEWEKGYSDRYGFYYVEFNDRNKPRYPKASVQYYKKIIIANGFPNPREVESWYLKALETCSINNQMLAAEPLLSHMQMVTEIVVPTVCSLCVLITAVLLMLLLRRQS
B7: Speckle-type POZ protein (Homo sapiens), O43791 (parent)
chain: B1 chain
partner: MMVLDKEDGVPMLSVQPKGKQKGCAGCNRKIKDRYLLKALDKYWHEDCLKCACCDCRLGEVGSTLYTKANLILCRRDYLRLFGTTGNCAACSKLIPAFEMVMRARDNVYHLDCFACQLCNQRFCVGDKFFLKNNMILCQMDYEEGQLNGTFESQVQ

Variants of: B1
Conditions: with inhba_human INHBA

| effect of a mutation on the interaction | Variant |
| --- | --- |
| with no effect | Y87C |

Variants of: B1
Conditions: with inhba_human INHBA
Remark: another data set of the same source

| effect of a mutation on the interaction | Variant |
| --- | --- |
| with no effect | F133V |

Variants of: B2
Conditions: with irf2_human IRF2, P14316

| effect of a mutation on the interaction | Variant |
| --- | --- |
| with no effect | F102C |

Variants of: B2
Conditions: with irf2_human IRF2, P14316
Remark: another data set of the same source

| effect of a mutation on the interaction | Variant |
| --- | --- |
| with no effect | F133L |

Variants of: B2
Conditions: with irf2_human IRF2, P14316
Remark: another data set of the same source

| effect of a mutation on the interaction | Variant |
| --- | --- |
| with no effect | Y87C |

Variants of: B2
Conditions: with irf2_human IRF2, P14316
Remark: another data set of the same source

| effect of a mutation on the interaction | Variant |
| --- | --- |
| with no effect | F133V |

Variants of: B3
Conditions: with ip3kb_human ITPKB

| effect of a mutation on the interaction | Variant |
| --- | --- |
| with no effect | F102C |

Variants of: B3
Conditions: with ip3kb_human ITPKB
Remark: another data set of the same source

| effect of a mutation on the interaction | Variant |
| --- | --- |
| with no effect | F133L |

Variants of: B3
Conditions: with ip3kb_human ITPKB
Remark: another data set of the same source

| effect of a mutation on the interaction | Variant |
| --- | --- |
| with no effect | Y87C |

Variants of: B3
Conditions: with ip3kb_human ITPKB
Remark: another data set of the same source

| effect of a mutation on the interaction | Variant |
| --- | --- |
| with no effect | F133V |

Variants of: B4
Conditions: with klhl6_human KLHL6, Q8WZ60

| effect of a mutation on the interaction | Variant |
| --- | --- |
| with no effect | F102C |

Variants of: B4
Conditions: with klhl6_human KLHL6, Q8WZ60
Remark: another data set of the same source

| effect of a mutation on the interaction | Variant |
| --- | --- |
| with no effect | F133L |

Variants of: B4
Conditions: with klhl6_human KLHL6, Q8WZ60
Remark: another data set of the same source

| effect of a mutation on the interaction | Variant |
| --- | --- |
| with no effect | Y87C |

Variants of: B4
Conditions: with klhl6_human KLHL6, Q8WZ60
Remark: another data set of the same source

| effect of a mutation on the interaction | Variant |
| --- | --- |
| with no effect | F133V |

Variants of: B5
Conditions: with lats2_human LATS2, Q9NRM7

| effect of a mutation on the interaction | Variant |
| --- | --- |
| with no effect | F102C |

Variants of: B5
Conditions: with lats2_human LATS2, Q9NRM7
Remark: another data set of the same source

| effect of a mutation on the interaction | Variant |
| --- | --- |
| with no effect | F133L |

Variants of: B5
Conditions: with lats2_human LATS2, Q9NRM7
Remark: another data set of the same source

| effect of a mutation on the interaction | Variant |
| --- | --- |
| with no effect | Y87C |

Variants of: B5
Conditions: with lats2_human LATS2, Q9NRM7
Remark: another data set of the same source

| effect of a mutation on the interaction | Variant |
| --- | --- |
| with no effect | F133V |

Variants of: B6
Conditions: with lctl_human LCTL

| effect of a mutation on the interaction | Variant |
| --- | --- |
| with no effect | F102C |

Variants of: B6
Conditions: with lctl_human LCTL
Remark: another data set of the same source

| effect of a mutation on the interaction | Variant |
| --- | --- |
| with no effect | F133L |

Variants of: B6
Conditions: with lctl_human LCTL
Remark: another data set of the same source

| effect of a mutation on the interaction | Variant |
| --- | --- |
| with no effect | Y87C |

Variants of: B6
Conditions: with lctl_human LCTL
Remark: another data set of the same source

| effect of a mutation on the interaction | Variant |
| --- | --- |
| with no effect | F133V |

Variants of: B7
Conditions: with rbtn1_human LMO1, P25800

| effect of a mutation on the interaction | Variant |
| --- | --- |
| with no effect | F102C |
